From paper doi:10.1101/2025.09.10.675359

Target: recombinant human CD4 (rCD4) (human, UniProt P01730 26-396)
Experiment: BLI

B1: Apt62 (Aptamer 62) (structured_DNA)
DNA: ATCCAGAGTGACGCAGCACCACCACCGTACAATTCGCTTTCTTTTTTCATTACCTACTCTGGCTTTTT
Q: B1 was tested. Which Kd did it give?
A: The Kd was 536 nM.
